Data set [1] addresses purified human PSA (shorter isoform), mCherry-Strep-tag II removed by thrombin (human, UniProt P55786-1 45-919). Description: cryo-EM structure.
Data set [2] concerns the molecule itself. Description: cryo-EM structure.

These results are taken from PMC12407707 (bioRxiv, 2025).

A word on the stoichiometry N: it is a count of units in the complex or per binding partner.

purified human PSA (shorter isoform), mCherry-Strep-tag II removed by thrombin, sequence (P55786 45-919): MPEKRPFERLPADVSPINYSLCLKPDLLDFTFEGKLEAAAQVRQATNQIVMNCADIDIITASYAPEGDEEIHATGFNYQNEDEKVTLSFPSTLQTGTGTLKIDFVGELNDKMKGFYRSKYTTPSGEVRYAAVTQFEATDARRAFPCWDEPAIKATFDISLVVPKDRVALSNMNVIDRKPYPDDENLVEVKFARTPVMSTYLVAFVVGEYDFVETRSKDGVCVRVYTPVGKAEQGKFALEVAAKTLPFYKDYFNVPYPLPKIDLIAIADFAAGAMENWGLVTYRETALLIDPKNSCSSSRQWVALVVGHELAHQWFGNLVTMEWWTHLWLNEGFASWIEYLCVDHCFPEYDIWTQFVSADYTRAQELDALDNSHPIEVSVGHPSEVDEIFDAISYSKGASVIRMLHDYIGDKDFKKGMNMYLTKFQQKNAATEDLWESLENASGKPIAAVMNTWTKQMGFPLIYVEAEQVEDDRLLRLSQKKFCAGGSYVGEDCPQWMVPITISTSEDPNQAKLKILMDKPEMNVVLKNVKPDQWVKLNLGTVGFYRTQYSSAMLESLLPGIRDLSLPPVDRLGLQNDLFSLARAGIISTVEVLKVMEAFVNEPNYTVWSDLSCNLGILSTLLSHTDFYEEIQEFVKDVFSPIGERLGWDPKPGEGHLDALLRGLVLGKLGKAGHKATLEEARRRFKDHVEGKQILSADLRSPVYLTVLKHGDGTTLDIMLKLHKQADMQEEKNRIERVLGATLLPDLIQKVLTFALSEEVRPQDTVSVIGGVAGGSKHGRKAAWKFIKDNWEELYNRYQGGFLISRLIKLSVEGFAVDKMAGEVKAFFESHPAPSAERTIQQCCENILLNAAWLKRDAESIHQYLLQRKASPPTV

B1: purified human SWELL1 homo-hexamer, tag removed by thrombin (cryo-EM sample) (natural protein)
chain: MIPVTELRYFADTQPAYRILKPWWDVFTDYISIVMLMIAVFGGTLQVTQDKMICLPCKWVTKDSCNDSFRGWAAPGPEPTYPNSTILPTPDTGPTGIKYDLDRHQYNYVDAVCYENRLHWFAKYFPYLVLLHTLIFLACSNFWFKFPRTSSKLEHFVSILLKCFDSPWTTRALSETVVEESDPKPAFSKMNGSMDKKSSTVSEDVEATVPMLQRTKSRIEQGIVDRSETGVLDKKEGEQAKALFEKVKKFRTHVEEGDIVYRLYMRQTIIKVIKFILIICYTVYYVHNIKFDVDCTVDIESLTGYRTYRCAHPLATLFKILASFYISLVIFYGLICMYTLWWMLRRSLKKYSFESIREESSYSDIPDVKNDFAFMLHLIDQYDPLYSKRFAVFLSEVSENKLRQLNLNNEWTLDKLRQRLTKNAQDKLELHLFMLSGIPDTVFDLVELEVLKLELIPDVTIPPSIAQLTGLKELWLYHTAAKIEAPALAFLRENLRALHIKFTDIKEIPLWIYSLKTLEELHLTGNLSAENNRYIVIDGLRELKRLKVLRLKSNLSKLPQVVTDVGVHLQKLSINNEGTKLIVLNSLKKMANLTELELIRCDLERIPHSIFSLHNLQEIDLKDNNLKTIEEIISFQHLHRLTCLKLWYNHIAYIPIQIGNLTNLERLYLNRNKIEKIPTQLFYCRKLRYLDLSHNNLTFLPADIGLLQNLQNLAITANRIETLPPELFQCRKLRALHLGNNVLQSLPSRVGELTNLTQIELRGNRLECLPVELGECPLLKRSGLVVEEDLFNTLPPEVKERLWRADKEQA
Consider B1, for which the binding result in data set [1] was “binds”. In data set [2], the “stoichiometry N” value came to 6.
